In US20210388084A1 (JJP BIOLOGICS SP Z O O, published 2021):

T1: membrane full-length bovine Fcγ2R (bovine)
T1 chain: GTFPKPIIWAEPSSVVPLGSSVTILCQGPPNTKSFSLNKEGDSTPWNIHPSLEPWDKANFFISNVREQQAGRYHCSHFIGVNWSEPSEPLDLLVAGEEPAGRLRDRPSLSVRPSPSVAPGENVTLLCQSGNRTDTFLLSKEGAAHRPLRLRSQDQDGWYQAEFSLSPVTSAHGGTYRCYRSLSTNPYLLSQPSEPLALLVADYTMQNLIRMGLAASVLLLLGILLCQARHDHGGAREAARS

T2: chimeric human/cynomolgus monkey CD89-hotspots (human/cynomolgus monkey chimera, UniProt P24071 22-287)
T2 construct: also called ΔThr58, Gln59; ΔArg73, Arg74, Lys76
T2 chain: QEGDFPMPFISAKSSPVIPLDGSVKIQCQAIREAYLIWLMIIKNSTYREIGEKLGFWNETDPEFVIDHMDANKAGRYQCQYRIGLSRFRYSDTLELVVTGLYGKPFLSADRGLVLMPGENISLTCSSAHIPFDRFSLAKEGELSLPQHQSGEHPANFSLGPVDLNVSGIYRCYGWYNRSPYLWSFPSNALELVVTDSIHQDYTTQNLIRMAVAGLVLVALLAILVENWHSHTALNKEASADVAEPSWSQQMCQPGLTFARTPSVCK

T3: chimeric human/cynomolgus monkey CD89-II (human/cynomolgus monkey chimera, UniProt P24071 22-287)
T3 construct: also called ΔIle47-Ile71 human EC1-CD89; II (47-71)
T3 chain: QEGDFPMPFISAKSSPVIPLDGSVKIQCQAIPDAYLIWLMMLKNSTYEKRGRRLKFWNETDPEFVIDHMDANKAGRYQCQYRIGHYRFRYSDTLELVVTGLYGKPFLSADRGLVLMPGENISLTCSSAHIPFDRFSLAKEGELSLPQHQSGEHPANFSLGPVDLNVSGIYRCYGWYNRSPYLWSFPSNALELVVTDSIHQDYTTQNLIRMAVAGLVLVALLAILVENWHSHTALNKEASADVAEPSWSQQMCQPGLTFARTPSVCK

T4: chimeric human/cynomolgus monkey CD89-III (human/cynomolgus monkey chimera, UniProt P24071 22-287)
T4 construct: also called ΔGly72-Gly96 human EC1-CD89; III (72-96)
T4 chain: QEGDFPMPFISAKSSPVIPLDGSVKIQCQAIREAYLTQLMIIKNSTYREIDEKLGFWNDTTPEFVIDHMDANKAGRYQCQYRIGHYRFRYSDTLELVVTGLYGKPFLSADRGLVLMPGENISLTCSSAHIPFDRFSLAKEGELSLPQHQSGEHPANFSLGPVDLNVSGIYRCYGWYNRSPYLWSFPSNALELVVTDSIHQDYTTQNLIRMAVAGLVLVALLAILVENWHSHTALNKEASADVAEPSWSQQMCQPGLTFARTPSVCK


Columns and labels:
[1] = biological target: T5, membrane-bound full-length human CD89 (human, UniProt P24071 22-287); test: FACS, HEK293F-huCD89, unlabeled Ab 10 ug/mL first; competitor A3-PE
T5 construct: on stably or transiently transfected HEK293F cells; also called FcalphaRI; huCD89
Procedure: Then, 10 μL/tube (ie, 0.1×10⁶ cells) of these cells were incubated with or without 100 μL purified mouse anti-human CD89 antibody at 10 μg/mL (in PBS/BSA/NaN₃) for 30 minutes at 4° C. […] After extensive washing in PBS/BSA/NaN₃, cells were fixed in 2% formaldehyde in PBS/BSA/NaN₃ for 30 minutes at 4° C.

[2] = biological target: T1, membrane full-length bovine Fcγ2R; test: FACS, transiently transfected HEK293F
Procedure: (§1) After 48 hours and/or 72 hours, the binding of CD89/IgA blocking mouse anti-human CD89 antibodies to aforementioned chimeric human/bovine receptors on transfected cells was analyzed by FACS analysis. To this end, transient transfected HEK293F cells were put at 10×10⁶ cells/mL in ice-chilled phosphate-buffered saline containing 0.1% BSA (Sigma)/0.05% NaN₃ (PBS/BSA/NaN₃) supplemented with 50 μg/mL human IgGs (blocking Fcγ receptors; Sigma) for 10 minutes at 4° C. Then, 10 μL/tube (ie, 0.1×10⁶ cells) of these cells were incubated with or without 100 μL purified mouse anti-human CD89 antibody at 10 μg/mL (in PBS/BSA/NaN₃) for 30 minutes at 4° C. […] After extensive washing in PBS/BSA/NaN₃, cells were subsequently incubated with 1:200 diluted PE-conjugated goat anti-mouse IgG Fey-specific antibodies (Jackson ImmunoResearch) for 30 minutes at 4° C. After extensive washing in PBS/BSA/NaN₃, cells were fixed in 2% formaldehyde in PBS/BSA/NaN₃ for 30 minutes at 4° C.

[3] = biological target: T2, chimeric human/cynomolgus monkey …; test: FACS, transiently transfected HEK293F; - = no binding
Procedure: (§2) After 48 hours, the binding of CD89/IgA blocking mouse anti-human CD89 antibodies to aforementioned chimeric human CD89/cynomolgus monkey CD89 constructs on transfected cells was analyzed by FACS analysis. To this end, transient transfected HEK293F cells were put at 10×10⁶ cells/mL in ice-chilled phosphate-buffered saline containing 0.1% BSA (Sigma)/0.05% NaN₃ (PBS/BSA/NaN₃) supplemented with 50 μg/mL human IgGs (blocking Fcγ receptors; Sigma) for 10 minutes at 4° C. Then, 10 μL/tube (ie, 0.1×10⁶ cells) of these cells were incubated with or without 100 μL purified mouse anti-human CD89 antibody at 10 μg/mL (in PBS/BSA/NaN₃) for 30 minutes at 4° C. […] After extensive washing in PBS/BSA/NaN₃, cells were subsequently incubated with 1:200 diluted PE-conjugated goat anti-mouse IgG Fey-specific antibodies (Jackson ImmunoResearch) for 30 minutes at 4° C. After extensive washing in PBS/BSA/NaN₃, cells were fixed in 2% formaldehyde in PBS/BSA/NaN₃ for 30 minutes at 4° C.

[4] = biological target: T3, chimeric human/cynomolgus monkey CD89-II; test: FACS, transiently transfected HEK293F, 10 ug/mL; ++ strong, + intermediate, -/+ weak
Procedure: as §2

[5] = biological target: T6, chimeric human EC1-CD89/bovine EC2-Fcγ2R (bovine TM & bovine IC) (human/bovine chimera); test: FACS, transiently transfected HEK293F, 10 ug/mL
T6 construct: also called human EC1-CD89 (version with bovine transmembrane-intracellular region)
Procedure: as §1

[6] = biological target: T7, chimeric human EC1-CD89/bovine EC2-Fcγ2R (human TM & human IC) (human/bovine chimera); test: FACS, transiently transfected HEK293F, 10 ug/mL
T7 construct: also called human EC1-CD89 (version with human transmembrane-intracellular region)
Procedure: as §1

[7] = biological target: T5, membrane-bound full-length human CD89; test: FACS, HEK293F-huCD89, 4C +NaN3, IgA then Ab 10 ug/mL; pre-bound non-aggr serum IgA
Procedure: After this (ie, without washing), 50 μL purified mouse anti-human CD89 antibody at 20 μg/mL (in PBS/BSA/NaN₃) was added to these cells, and incubated for another 30 minutes at 4° C. […] After extensive washing in PBS/BSA/NaN₃, 1:200 diluted PE-conjugated streptavidin (Jackson ImmunoResearch) was added, and incubated for 30 minutes at 4° C. After extensive washing in PBS/BSA/NaN₃, cells were fixed in 2% formaldehyde in PBS/BSA/NaN₃ for 30 minutes at 4° C.

[8] = biological target: T3, chimeric human/cynomolgus monkey CD89-II; test: FACS, transiently transfected HEK293F; - = no binding
Procedure: as §2

[9] = biological target: T5, membrane-bound full-length human CD89; test: FACS, HEK293F-huCD89, 4C +NaN3, IgA then Ab 10 ug/mL; pre-bound heat-aggr serum IgA
Procedure: After extensive washing in PBS/BSA/NaN₃, 1:200 diluted PE-conjugated streptavidin (Jackson ImmunoResearch) was added, and incubated for 30 minutes at 4° C. After extensive washing in PBS/BSA/NaN₃, cells were fixed in 2% formaldehyde in PBS/BSA/NaN₃ for 30 minutes at 4° C.

[10] = biological target: T2, chimeric human/cynomolgus monkey …; test: FACS, transiently transfected HEK293F, 10 ug/mL; ++ strong, + intermediate, -/+ weak
Procedure: as §2

[11] = biological target: T4, chimeric human/cynomolgus monkey …; test: as above
Procedure: as §2

[12] = biological target: T4, chimeric human/cynomolgus monkey …; test: FACS, transiently transfected HEK293F; - = no binding
Procedure: as §2

Row | % blocking of A3-PE binding [1] [%] | binding result [2] | binding result [3] | binding result [4] | binding result [5] | binding result [6] | percent IgA binding [7] [%] | binding result [8] | percent IgA binding [9] [%] | binding result [10] | binding result [11] | binding result [12] | Binder
1 | < 25 | no binding (tested: 10 µg/mL) | no binding (tested: 10 µg/mL) | binds | binds | binds |  |  |  |  |  |  | mouse anti-human CD89-specific antibody 10E7 (antibody, mouse IgG1, V domains shown) VH: EVQLVESGGGLVQPGGSLKLSCAASGLTFSSYGMSWVRQTPDKRLELVATINGNGDITYYPDSVKGRFTISRDNAKNTLYLQMSSLKSEDTAMYYCARDYDYDYAMDYWGQGTSVTVSS VL: DIQMTQSTSSLSASLGDSVTISCRASQDIINYLNWYQQKPDGTVKLLIYYTSRLHSGVPSRFSGSGSGTEYSLTVSNLEKEDIATYFCQQGKTLPYTFGGGTKLEIK
2 |  |  |  |  |  |  | 0 to 25 | no binding (tested: 10 µg/mL) | 26 to 50 | binds | binds |  | mouse anti-human CD89-specific antibody 20B4 (antibody, mouse IgG1, V domains shown) VH: QVQLKESGPGLVAPSQSLSITCTVSGFSLTSYGVHWVRQPPGKGLEWLGIIWAGGSTSYNSALMSRLSISKDNSKSQVFLKMNSLQTDDTAMYYCARDHYDLFAYWGQGTLVTVSA VL: DILMTQSPSSMSVSLGDTVSITCHASQDISRNIGWLQQKPGKSFKGLIYHGTNLEDGVPSRFSGSGSGADYSLTISSLESEDFADYYCVQYAQFPRTFGGGTKLEIK
3 | < 25 |  | no binding (tested: 10 µg/mL) | binds |  |  |  |  |  |  |  | no binding (tested: 10 µg/mL) | mouse anti-human CD89-specific antibody 8F3 (antibody, mouse IgG1, V domains shown) VH: EVQLVESGGGLVKPGGSLKLSCAASGFTFSNYGMSWVRQTPDKRLEWVATMHSGGTYTYYPDNVKGRFTISRDNAKNNLYLQMSSLRSEDTAMYYCARETGLYDGLFDFWGQGTTLTVSS VL: DVQITQSPSYLAASPGETITINCRASKTISKYLAWYQEKPGKTNMLLIYSGSTLQSGVPSRFSGSGSGTDFTLTISSLEPEDLAMYYCQQHDEYPWTFGGGTKLEIK
